Assay results: paper PMC5394233, “Structural and functional analysis of the human POT1-TPP1 telomeric complex” (Nature Communications, 2017)

T1: human POT1C (residues 330-634) Q623H (human, UniProt Q9NUX5 330-634, Q623H)
T1 construct: POT1, human, C-terminal portion (OB-fold and HJR domain), residues 330-634, with the germline melanoma-associated mutation Q623H; PDB 5UN7 holds the wild-type parent with the same limits; The methods describe tag cleavage by TEV for the co-purified complex; For ITC the proteins were purified separately; also called POT1C Q623H; source: E. coli ScarabXpress T7 lac, purified (Ni-NTA, Poros HS/HQ, …)
T1 sequence (looked up): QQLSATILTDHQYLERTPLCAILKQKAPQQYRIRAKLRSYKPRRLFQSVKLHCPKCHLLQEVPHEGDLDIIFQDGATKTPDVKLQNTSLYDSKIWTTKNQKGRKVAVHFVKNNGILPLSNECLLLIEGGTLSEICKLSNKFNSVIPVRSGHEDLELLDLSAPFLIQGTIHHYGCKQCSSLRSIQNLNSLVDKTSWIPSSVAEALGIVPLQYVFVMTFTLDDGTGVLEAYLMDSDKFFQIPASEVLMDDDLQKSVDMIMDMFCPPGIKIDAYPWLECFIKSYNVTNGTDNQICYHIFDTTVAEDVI


Key:
[1] = target: human POT1C (330-634) P446Q (human) (UniProt Q9NUX5); assay: ITC; MicroCal iTC200; 100 uM TPP1(PBD) injected into the cell with 10 uM POT1C; 25 C; 25 mM Hepes pH 7.5, 0.1 M KCl, 5% glycerol, 1 mM TCEP; 16 injections of 2.47 ul; proteins purified separately
[2] = target: human POT1C (330-634) L343F (human) (UniProt Q9NUX5); assay: as above
[3] = target: human POT1C (330-634) Q623H (human) (UniProt Q9NUX5); assay: as above
[4] = target: human POT1C (330-634) A532P (human) (UniProt Q9NUX5); assay: as above
[5] = target: human POT1C (330-634) R477T (human) (UniProt Q9NUX5); assay: as above
[6] = target: human POT1 C-terminus (POT1C), residues 330-634, wild type (human) (UniProt Q9NUX5); assay: as above
[7] = target: human POT1C (330-634) C591W (human) (UniProt Q9NUX5); assay: as above
[8] = target: human POT1C (330-634) P475L (human) (UniProt Q9NUX5); assay: as above
[9] = target: T1, human POT1C (residues 330-634) Q623H; assay: ITC; 100 uM TPP1(PBD) injected into the cell with 10 uM POT1C; 25 °C; 25 mM Hepes pH 7.5, 0.1 M KCl, 5% glycerol, 1 mM TCEP; 16 injections of 2.47 ul; three independent experiments; details: both partners purified

human POT1C (330-634) L343F (human), sequence (Q9NUX5 330-634 L343F): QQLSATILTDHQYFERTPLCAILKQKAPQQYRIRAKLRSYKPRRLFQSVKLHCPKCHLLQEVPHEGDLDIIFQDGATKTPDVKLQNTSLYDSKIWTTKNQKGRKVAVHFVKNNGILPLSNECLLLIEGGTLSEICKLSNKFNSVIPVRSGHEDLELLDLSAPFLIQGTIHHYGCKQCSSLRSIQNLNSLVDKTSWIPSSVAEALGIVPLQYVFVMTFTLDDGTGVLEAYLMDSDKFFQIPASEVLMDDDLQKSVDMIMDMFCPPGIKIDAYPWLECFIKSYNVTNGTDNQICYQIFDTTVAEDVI

Row | Kd [1] | Kd [2] | Kd [3] | Kd [4] | Kd [5] | Kd [6] | Kd [7] | Kd [8] | Kd [9] | Molecule
1 | 289 nM | 114 nM | 471 nM | 117 nM | 123 nM | 120 nM | 870 nM | 164 nM | – | human TPP1 POT1-binding domain, TPP1(PBD), residues 255-337 (from UniProt Q96AP0 255-337) (domain or fragment)
2 | – | – | – | – | – | – | – | – | 472 nM | human TPP1(PBD), residues 255-337 (domain or fragment) SQLLDEMREDQEHQGALVCLAESCLTLEGPCTAPPVTHWAASRCKATGEAVYTVPSSMLCISENDQLILSSLGPCQRTQGPEL
